The results in this text go back to publication PMC3325216.

Experiment in all cases: ELISA; wt or alanine-mutant E2 from 293T lysate captured by GNA on microtiter plates, amount normalised by CBH-17 binding; CD81-LEL added at 20 µg/ml; bound CD81-LEL detected with anti-CD81; percent relative to wt
A general note: In an ELISA, binding on a coated surface is turned into a signal by an enzyme label.

Experiment [1] concerns the target H77C E1E2 mutant K446A (hepatitis C virus genotype 1a, isolate H77C).
In experiment [2] the target is H77C E1E2 mutant N428A (hepatitis C virus genotype 1a, isolate H77C).
In experiment [3] the target is H77C E1E2 mutant Y443A (hepatitis C virus genotype 1a, isolate H77C).

For “CD81 large extracellular loop fused to glutathione S-transferase (from UniProt P60033 1-236) (domain or fragment)”, the percent CD81 binding relative to wt in experiment [1] came to 83%; in experiment [2] it was 10%; in experiment [3], 20%.
